Data published in patent US20190077860A1 (EISAI R AND D MANAGEMENT, published 2019).
Where a chain is given by its changes, count along the chain named.

T1: human EphA7 extracellular region-SEAP-His protein (human, UniProt Q15375 28-555)
T1 construct: extracellular domain; also called hEphA7-SEAP-His
T1 sequence (looked up): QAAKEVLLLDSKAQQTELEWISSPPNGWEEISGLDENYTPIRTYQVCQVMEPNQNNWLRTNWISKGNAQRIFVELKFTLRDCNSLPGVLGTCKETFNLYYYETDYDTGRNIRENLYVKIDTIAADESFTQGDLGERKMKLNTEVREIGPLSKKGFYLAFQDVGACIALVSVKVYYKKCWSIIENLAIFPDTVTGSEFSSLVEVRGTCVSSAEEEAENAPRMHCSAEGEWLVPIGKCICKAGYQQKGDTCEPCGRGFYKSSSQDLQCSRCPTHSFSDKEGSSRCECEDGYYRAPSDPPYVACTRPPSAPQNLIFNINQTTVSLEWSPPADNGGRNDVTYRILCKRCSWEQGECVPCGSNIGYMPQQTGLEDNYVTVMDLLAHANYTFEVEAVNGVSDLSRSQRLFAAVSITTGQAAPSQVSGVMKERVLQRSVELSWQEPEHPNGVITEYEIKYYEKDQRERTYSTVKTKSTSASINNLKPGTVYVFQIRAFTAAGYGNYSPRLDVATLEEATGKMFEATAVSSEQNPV

T2: human EphB4 extracellular region-SEAP-His protein (human, UniProt P54760 16-539)
T2 construct: extracellular domain; also called hEphB4-SEAP-His
T2 sequence (looked up): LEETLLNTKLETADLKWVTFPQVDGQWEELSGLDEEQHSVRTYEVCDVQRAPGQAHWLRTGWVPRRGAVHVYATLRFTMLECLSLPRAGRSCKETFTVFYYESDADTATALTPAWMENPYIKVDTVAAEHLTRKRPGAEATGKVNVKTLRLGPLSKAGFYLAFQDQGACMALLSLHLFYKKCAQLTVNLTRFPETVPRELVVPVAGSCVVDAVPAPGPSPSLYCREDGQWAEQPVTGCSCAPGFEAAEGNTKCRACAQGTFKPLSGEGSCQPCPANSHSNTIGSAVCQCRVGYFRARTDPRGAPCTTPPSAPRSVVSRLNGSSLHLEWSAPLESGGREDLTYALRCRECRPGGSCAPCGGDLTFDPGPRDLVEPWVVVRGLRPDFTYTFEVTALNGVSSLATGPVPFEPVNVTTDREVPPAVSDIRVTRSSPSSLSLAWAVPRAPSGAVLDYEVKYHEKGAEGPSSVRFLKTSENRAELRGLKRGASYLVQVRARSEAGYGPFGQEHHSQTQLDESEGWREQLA

T3: human EphA8 extracellular region-SEAP-His protein (human, UniProt P29322 28-542)
T3 construct: extracellular domain; also called hEphA8-SEAP-His
T3 sequence (looked up): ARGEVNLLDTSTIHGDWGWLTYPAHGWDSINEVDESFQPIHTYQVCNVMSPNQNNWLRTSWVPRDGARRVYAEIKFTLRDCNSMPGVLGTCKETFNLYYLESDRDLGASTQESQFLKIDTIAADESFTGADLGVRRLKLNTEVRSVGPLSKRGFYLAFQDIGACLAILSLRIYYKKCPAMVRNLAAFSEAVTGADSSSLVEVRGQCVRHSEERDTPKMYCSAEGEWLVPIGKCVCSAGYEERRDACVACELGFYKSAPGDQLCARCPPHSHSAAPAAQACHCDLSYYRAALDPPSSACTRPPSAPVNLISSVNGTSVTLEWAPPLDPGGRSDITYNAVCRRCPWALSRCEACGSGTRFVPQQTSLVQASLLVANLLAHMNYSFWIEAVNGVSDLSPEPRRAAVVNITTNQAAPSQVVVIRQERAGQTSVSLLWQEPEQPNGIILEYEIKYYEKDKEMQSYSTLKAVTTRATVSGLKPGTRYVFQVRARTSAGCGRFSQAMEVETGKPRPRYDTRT

T4: human EphB6 extracellular region-SEAP-His protein (human, UniProt O15197 32-594)
T4 construct: extracellular domain; also called hEphB6-SEAP-His
T4 sequence (looked up): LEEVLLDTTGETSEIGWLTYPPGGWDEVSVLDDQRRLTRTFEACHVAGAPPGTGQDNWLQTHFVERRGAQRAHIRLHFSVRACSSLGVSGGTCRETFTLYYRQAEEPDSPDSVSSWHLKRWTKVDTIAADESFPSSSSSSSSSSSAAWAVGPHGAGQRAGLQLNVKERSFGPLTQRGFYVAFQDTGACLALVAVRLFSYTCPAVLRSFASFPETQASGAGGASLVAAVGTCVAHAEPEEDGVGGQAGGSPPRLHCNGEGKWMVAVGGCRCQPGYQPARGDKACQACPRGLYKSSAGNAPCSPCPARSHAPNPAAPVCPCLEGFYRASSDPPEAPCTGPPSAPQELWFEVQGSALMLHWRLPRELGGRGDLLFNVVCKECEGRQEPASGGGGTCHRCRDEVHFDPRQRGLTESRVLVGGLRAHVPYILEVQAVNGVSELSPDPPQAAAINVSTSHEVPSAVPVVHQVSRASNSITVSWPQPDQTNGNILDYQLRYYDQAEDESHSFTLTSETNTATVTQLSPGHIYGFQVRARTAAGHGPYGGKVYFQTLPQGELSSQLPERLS

B1: humanized antibody No. 94 (antibody, human IgG1, kappa)
heavy: QVQLVQSGSELKKPGASVKVSCKASGYTFTDYSMHWVRQAPGQGLKWMGWINTETGEPTYAQGFTGRFVFSLDTSVSTAYLQISSLKAEDTAVYYCARIPLYYYGSRYWYFDVWGQGTTVTVSSASTKGPSVFPLAPSSKSTSGGTAALGCLVKDYFPEPVTVSWNSGALTSGVHTFPAVLQSSGLYSLSSVVTVPSSSLGTQTYICNVNHKPSNTKVDKRVEPKSCDKTHTCPPCPAPPAAAPSVFLFPPKPKDTLMISRTPEVTCVVVDVSHEDPEVQFNWYVDGVEVHNAKTKPREEQFNSTFRVVSVLTVVHQDWLNGKEYKCKVSNKGLPAPIEKTISKTKGQPREPQVYTLPPSREEMTKNQVSLTCLVKGFYPSDIAVEWESNGQPENNYKTTPPMLDSDGSFFLYSKLTVDKSRWQQGNVFSCSVMHEALHNHYTQKSLSLSPG
light: EIVMTQSPATLSVSPGERATLSCRASENIYRNLAWYQQKPGQSPRLLIYAATNLADGIPARFSGSGSGTEYTLTISSLQSEDFAVYYCQHFWGTPWTFGQGTKVEIKRTVAAPSVFIFPPSDEQLKSGTASVVCLLNNFYPREAKVQWKVDNALQSGNSQESVTEQDSKDSTYSLSSTLTLSKADYEKHKVYACEVTHQGLSSPVTKSFNRGEC
notes: human Ig kappa; also called L2-4/HA2
B2: humanized antibody No. 73 (antibody, human IgG1, kappa)
heavy: B1 heavy with V2I, Q62D, G63D, T65K
light: B1 light
notes: human Ig kappa; also called L2-4/HK4
B3: humanized antibody No. 71 (antibody, human IgG1, kappa)
heavy: B1 heavy with V2I
light: B1 light
notes: human Ig kappa; also called L2-4/HA4
B4: humanized antibody No. 159 (antibody, human IgG2)
heavy: QVQLVQSGSELKKPGASVKVSCKASGYTFTDYSMHWVRQAPGQGLKWMGWINTETGEPTYADDFKGRFVFSLDTSVSTAYLQISSLKAEDTAVYYCARIPLYYYGSRYWYFDVWGQGTTVTVSSASTKGPSVFPLAPSSRSTSESTAALGCLVKDYFPEPVTVSWNSGALTSGVHTFPAVLQSSGLYSLSSVVTVPSSNFGTQTYTCNVDHKPSNTKVDKTVERKSCVECPPCPAPPAAAPSVFLFPPKPKDTLMISRTPEVTCVVVDVSHEDPEVQFNWYVDGVEVHNAKTKPREEQFNSTFRVVSVLTVVHQDWLNGKEYKCKVSNKGLPAPIEKTISKTKGQPREPQVYTLPPSREEMTKNQVSLTCLVKGFYPSDIAVEWESNGQPENNYKTTPPMLDSDGSFFLYSKLTVDKSRWQQGNVFSCSVMHEALHNHYTQKSLSLSPG
light: DIQMTQSPSSLSASVGDRVTITCRASENIYRNLAWYQQKPGKAPQLLLYAATNLADGVPSRFSGSGSGTDYTLTISSLQPEDFATYYCQHFWGTPWTFGQGTKVEIKRTVAAPSVFIFPPSDEQLKSGTASVVCLLNNFYPREAKVQWKVDNALQSGNSQESVTEQDSKDSTYSLSSTLTLSKADYEKHKVYACEVTHQGLSSPVTKSFNRGEC
notes: human Ig kappa; also called L1-6/HK2
B5: humanized antibody No. 134 (antibody, human IgG2)
heavy: B4 heavy with D62Q, D63G, K65T
light: B1 light
notes: as for B1
B6: humanized antibody No. 135 (antibody, human IgG2)
heavy: B4 heavy with K46E
light: B1 light
notes: human Ig kappa; also called L2-4/HK1
B7: humanized antibody No. 133 (antibody, human IgG2)
heavy: B4 heavy with K46E, D62Q, D63G, K65T
light: B1 light
notes: human Ig kappa; also called L2-4/HA1
B8: humanized antibody No. 160 (antibody, human IgG2)
heavy: B4 heavy with V2I
light: B4 light
notes: human Ig kappa; also called L1-6/HK4
B9: humanized antibody No. 136 (antibody, human IgG2)
heavy: B4 heavy
light: B1 light
notes: human Ig kappa; also called L2-4/HK2
B10: humanized antibody No. 132 (antibody, human IgG2)
heavy: B4 heavy with V2I, D62Q, D63G, K65T
light: B1 light
notes: as for B3
B11: humanized antibody No. 137 (antibody, human IgG2)
heavy: B4 heavy with V2I
light: B1 light
notes: as for B2

Target: T1, human EphA7 extracellular …
Test: ELISA

| A450 as % of hEphA4-SEAP-His | Binder |
| --- | --- |
| 6.1% | B1 |
| 5.6% | B2 |
| 5.2% | B3 |
| 5.5% | B4 |
| 5.1% | B5 |
| 5.2% | B6 |
| 4.6% | B7 |
| 6.1% | B8 |
| 5.4% | B9 |
| 4.5% | B10 |
| 5.8% | B11 |

Target: T2, human EphB4 extracellular …
Test: ELISA

| A450 as % of hEphA4-SEAP-His | Binder |
| --- | --- |
| 6.5% | B1 |
| 5.7% | B2 |
| 5.5% | B3 |
| 5.4% | B4 |
| 5.1% | B5 |
| 5.1% | B6 |
| 4.9% | B7 |
| 6.3% | B8 |
| 5.2% | B9 |
| 4.8% | B10 |
| 5.7% | B11 |

Target: T5, human EphA2 extracellular region-SEAP-His protein (human, UniProt P29317 24-537)
T5 construct: extracellular domain; also called hEphA2-SEAP-His
Test: ELISA

T5 sequence (P29317 24-537): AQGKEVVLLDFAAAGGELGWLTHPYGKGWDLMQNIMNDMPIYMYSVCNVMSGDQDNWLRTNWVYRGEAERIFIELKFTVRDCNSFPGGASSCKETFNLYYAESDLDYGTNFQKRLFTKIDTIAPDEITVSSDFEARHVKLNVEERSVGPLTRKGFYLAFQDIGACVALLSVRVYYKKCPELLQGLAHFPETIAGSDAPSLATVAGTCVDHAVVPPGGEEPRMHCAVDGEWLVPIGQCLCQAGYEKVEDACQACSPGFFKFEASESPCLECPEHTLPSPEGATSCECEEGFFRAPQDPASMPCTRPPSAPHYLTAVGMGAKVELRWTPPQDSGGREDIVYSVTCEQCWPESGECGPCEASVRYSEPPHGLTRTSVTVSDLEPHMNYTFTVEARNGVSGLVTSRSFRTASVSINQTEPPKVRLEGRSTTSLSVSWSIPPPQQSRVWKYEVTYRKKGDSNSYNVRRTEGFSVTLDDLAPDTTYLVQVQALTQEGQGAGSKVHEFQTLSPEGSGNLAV

| A450 as % of hEphA4-SEAP-His | Binder |
| --- | --- |
| 6.4% | B1 |
| 5.7% | B2 |
| 5.7% | B3 |
| 5.4% | B4 |
| 5% | B5 |
| 5% | B6 |
| 4.7% | B7 |
| 6.1% | B8 |
| 5.1% | B9 |
| 4.8% | B10 |
| 5.4% | B11 |

Target: T3, human EphA8 extracellular …
Test: ELISA

| A450 as % of hEphA4-SEAP-His | Binder |
| --- | --- |
| 7% | B1 |
| 5.8% | B2 |
| 5.3% | B3 |
| 5.5% | B4 |
| 5.7% | B5 |
| 5% | B6 |
| 4.7% | B7 |
| 5.4% | B8 |
| 5.4% | B9 |
| 4.7% | B10 |
| 5.9% | B11 |

Target: T6, human EphA5 extracellular region-SEAP-His protein (human, UniProt P54756 25-573)
T6 construct: extracellular domain; also called hEphA5-SEAP-His
Test: ELISA

T6 sequence (P54756 25-573): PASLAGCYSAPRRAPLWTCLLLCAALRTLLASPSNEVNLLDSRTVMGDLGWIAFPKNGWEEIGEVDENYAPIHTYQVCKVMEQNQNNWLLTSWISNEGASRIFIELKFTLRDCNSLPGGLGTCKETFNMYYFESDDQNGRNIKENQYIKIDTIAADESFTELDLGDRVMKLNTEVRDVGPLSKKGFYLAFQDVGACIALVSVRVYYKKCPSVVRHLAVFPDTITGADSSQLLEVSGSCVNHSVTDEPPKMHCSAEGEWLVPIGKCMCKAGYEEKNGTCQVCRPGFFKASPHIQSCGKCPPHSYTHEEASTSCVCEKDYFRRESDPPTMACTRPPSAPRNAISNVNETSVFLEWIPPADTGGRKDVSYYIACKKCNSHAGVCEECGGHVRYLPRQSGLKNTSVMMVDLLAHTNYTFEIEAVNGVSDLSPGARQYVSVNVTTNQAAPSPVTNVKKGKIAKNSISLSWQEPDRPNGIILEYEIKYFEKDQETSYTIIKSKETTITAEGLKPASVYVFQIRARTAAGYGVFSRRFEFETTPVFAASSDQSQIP

| A450 as % of hEphA4-SEAP-His | Binder |
| --- | --- |
| 6.5% | B1 |
| 6% | B2 |
| 5.6% | B3 |
| 5.5% | B4 |
| 5.2% | B5 |
| 5% | B6 |
| 4.7% | B7 |
| 6.5% | B8 |
| 5.2% | B9 |
| 4.7% | B10 |
| 5.7% | B11 |

Target: T4, human EphB6 extracellular …
Test: ELISA

| A450 as % of hEphA4-SEAP-His | Binder |
| --- | --- |
| 6.4% | B1 |
| 5.6% | B2 |
| 5.3% | B3 |
| 5.5% | B4 |
| 5.2% | B5 |
| 5.3% | B6 |
| 4.8% | B7 |
| 6.2% | B8 |
| 5.5% | B9 |
| 4.7% | B10 |
| 5.7% | B11 |
